Data set [1] has as its target T1, Cc78 (Caulobacter crescentus NA1000, UniProt B8GW92 1-78, del79-82).
T1 sequence: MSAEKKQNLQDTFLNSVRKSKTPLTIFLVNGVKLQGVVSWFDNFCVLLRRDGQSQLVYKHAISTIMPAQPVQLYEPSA
Description: EMSA; Hill n 1.4; EMSA: 34 mM Tris-HCl pH 7.5, 50 mM NaCl, 50 mM KCl, 50 mM NH4Cl, 11.4 mM EDTA, 12% glycerol, 30 C, 30 min, ~1 nM 32P-RNA, Kd in Hfq6; anisotropy: 10 mM Tris-HCl. The settings on record: protein: recombinant; tags: untagged after self-cleaved intein; chain copies: 6; label: 32P; stem-loops.

Data set [2] deals with T2, EcCc Hfq (Escherichia coli / Caulobacter …, UniProt P0A6X3 1-67+B8GW92:71-82, internal_change). The experiment in a line: EMSA; Hill n 1.6; EMSA: 34 mM Tris-HCl pH 7.5, 50 mM NaCl, 50 mM KCl, 50 mM NH4Cl, 11.4 mM EDTA, 12% glycerol, 30 C, 30 min, ~1 nM 32P-RNA, Kd in Hfq6; anisotropy: 10 mM Tris-HCl. The conditions noted are these: protein: recombinant; tags: untagged; chain copies: 6; label: 32P; stem-loops.

Data set [3] has as its target T3, Ec65 (Escherichia coli, UniProt P0A6X3 1-65, del66-102). The description is as above. The settings on record: protein: recombinant; tags: untagged; chain copies: 6; label: 32P; stem-loops.
The target in data set [4] is T4, Ec Hfq (Hfq102) (Escherichia coli, UniProt P0A6X3 1-102). The experiment in a line: EMSA; Hill n 1.0; Tris-glycine gel; EMSA: 34 mM Tris-HCl pH 7.5, 50 mM NaCl, 50 mM KCl, 50 mM NH4Cl, 11.4 mM EDTA, 12% glycerol, 30 C, 30 min, ~1 nM 32P-RNA, Kd in Hfq6; anisotropy: 10 mM Tris-HCl. The settings on record: protein: recombinant; tags: untagged; chain copies: 6; label: 32P; stem-loops.

The target of data set [5] is T3, Ec65. The experiment in a line: EMSA; Hill n 1.0; EMSA: 34 mM Tris-HCl pH 7.5, 50 mM NaCl, 50 mM KCl, 50 mM NH4Cl, 11.4 mM EDTA, 12% glycerol, 30 C, 30 min, ~1 nM 32P-RNA, Kd in Hfq6; anisotropy: 10 mM Tris-HCl. The conditions noted are these: protein: recombinant; tags: untagged; chain copies: 6; label: 32P; stem-loops.
Data set [6] addresses T1, Cc78. The experiment in a line: EMSA; Hill n 1.3; EMSA: 34 mM Tris-HCl pH 7.5, 50 mM NaCl, 50 mM KCl, 50 mM NH4Cl, 11.4 mM EDTA, 12% glycerol, 30 C, 30 min, ~1 nM 32P-RNA, Kd in Hfq6; anisotropy: 10 mM Tris-HCl. The conditions noted are these: protein: recombinant; tags: untagged after self-cleaved intein; chain copies: 6; label: 32P; stem-loops.
The target of data set [7] is T2, EcCc Hfq. Description: EMSA; Hill n 5.1; EMSA: 34 mM Tris-HCl pH 7.5, 50 mM NaCl, 50 mM KCl, 50 mM NH4Cl, 11.4 mM EDTA, 12% glycerol, 30 C, 30 min, ~1 nM 32P-RNA, Kd in Hfq6; anisotropy: 10 mM Tris-HCl. The settings on record: protein: recombinant; tags: untagged; chain copies: 6; label: 32P; stem-loops.
The target in data set [8] is T4, Ec Hfq (Hfq102). Description: EMSA; Hill n 8.2; Tris-glycine gel; EMSA: 34 mM Tris-HCl pH 7.5, 50 mM NaCl, 50 mM KCl, 50 mM NH4Cl, 11.4 mM EDTA, 12% glycerol, 30 C, 30 min, ~1 nM 32P-RNA, Kd in Hfq6; anisotropy: 10 mM Tris-HCl. The conditions noted are these: protein: recombinant; tags: untagged; chain copies: 6; label: 32P; stem-loops.

B1: ChvR (structured_RNA)
RNA: GGCGGGGCCUACAUGUCGCGCAAGUCUCCGGAGGGCCAUUCCGAGGCGGGGCCCGCUCCAGCGUCCUCAUUGGAGCGGGCGUCU
Consider B1, for which the equilibrium dissociation constant (Kd) was 256 ± 25 nM with Cc78 [1], 228 ± 84 nM with EcCc Hfq [2], 20.2 ± 0.3 nM with Ec65 [3] and 17.2 ± 1 nM in the data set with Ec Hfq (Hfq102) [4].

B2: R157 (structured_RNA)
RNA: GGUGAGGCGCCGAGCGCCUCUGCCCUUCCUGGGCGUUUCCUCCCUAUGACUUUGUAGCCCGGUCUUCAUGGCCGGGCUUUCUUUUU
Take B2: the Kd stood at 6.3 ± 1.1 nM with Ec65 [5], 349 ± 7 nM in the data set with Cc78 [6], 55.7 ± 2.7 nM in the data set with EcCc Hfq [7] and 14.3 ± 0.1 nM with Ec Hfq (Hfq102) [8].
